Source: a protein production outcome set (Wang et al. 2014)

test: label from the status in PepcDB records

Q: For “MTELTILLGLAAAGYGVSHWTQLPAIPFLLMGGLALNATGAVGDAGFVEDVLFLSVSILLFVAGTDLSLTRVGPFKKTAFVIGVAQFAGLAAAALGIAYGLDYALTDALYLGLALAASSTIVGVRLLQRRQQMFEPYGRTVLGALLLQDVIVVLLLPLLVRLPDGSAAVLGSLGGTIVLLVGVGVVMKGVVPLLLKRELDAETQLLAVLGVLFGFMGAAAWLDVPLFAAAFLAGVSLSGFPFSGIVHSEMQPLYDFFSALFFASLGVAAPQPAPVLFGHAALFAGAVLVLTPLIVAVVGAWAGLVAQSALESGLLLAQTSELSLVVGLQALVAGQIGGEVFSVIVLTTVFTMMLTPLLTSETVVWELVRWHPSRQSDVLSEVPSNHVLVVGGGRSARPLLRLLRESKYEAVVVDEDPTVVDRLRDQGVRCVRGDGSDRAVLLKAGGAQARIVVSLLRNPKAVESLLDYVGDTVPILVRVFEDHEAEWVEARGGTPIRFAHAASDAFMEWFRRAQSARSKQPPSGT”, which protein production is on record?
A: Its protein production is “failed”.

Q: Which protein production does the source give for “MTENIPKSVAAMIRQPRKISPFWLLPIVAFIIGALLFFQILKEQGETIKIRFNAGDGIVAGKTIVRYQGLQIGQVKKVYFVDDLKKVEVQAQINSEAKSVLREGTTFWLVKPSASIAGVSGLDALVSGNYITLAPGNGAITNHFVAQDEQPAATVTDGDLLVHLIASDLGSITIGASVYFRKVPVGNIANYRFTEDKQKVEIDVVINKKYAHLVKQNSRFWNISGLNANISFSGLAVNVDSLASVIQGAVSFDSPEDSTLAEQASRFDLYADLKSAQRGVDVNITVPAMTSLKVNETPVFYQNTQVGVLSFIEAMPIDNKEIERVEENAMLRGRLLIDPNYTHLFREQSTILLKEPKFNLNAEQLTNIGQLLRGVYFEVKAGNGLAKRTFTVEKESDYLLSRPDMLALTFFAPKAYGVEEGQGIYYNDVKIGELLKRTLSVDGVTLQGIIFPAYRYLVGENSKFMAIAHLDVAVGLDGLRVKAGSPSHWLQGGIRLLEGKVQGVAKKQYPLYKDIDNAQAGILSDIKQPTLTLSASELEGIDKGAVVLYRNYQIGEVLNVKPQSQKFDVEVYIEPAYRQLIGNKSRFWVESAIEAELSAKGLSIQSAPLMRTLRGAISIDNGGDKMDRTLYANRIKATANKTRISLIAKDASKLFKGMAIKYMGLTIGQIETLALQNAKKQIKLTAYIEAPYYSIIAKEGSCFTAISPEVTPSGVKNIDAVLQNYIDVEAGNGGLATEFNLIDTDTNKTTYANNFPIIVETSDARGIEVNAPVLYRGLQVGIVQRLQLSELADRIQIHLAIEKQYQHLIRNNTQFWAASGYTMDISLQGVSLNSGTMAQLLKGGIEFLTPSTRVVEPQAKPNRRFLLQRKIPAKALSWDQAIAE” here?
A: Its protein production is “failed”.

Q: Which protein production does the source give for “MTENPEEDNKVFNYWWLAHLVEVRLDAYLRTKKQADLEVAEKTYLHNKNRNGGTLIHDFYDDMLWNALAAYRLYKATGKSIYLEDAQLVWQDLVDTGWNDIMGGGFAWRRPQMYYKNTPVNAPFIILSCWLYNELNETKYLEWAMKTYEWQTKVLVREDGFVEDGINRLEDGTIDYEWKFTYNQGVYIGANLELYRITKEAKYLDTANKTAAISLKELTEDGIFKDEGNGGDEGLFKGIFYRYFTDLIEETANKTYRDFVLNSCQILVENAKLDGYLLMGMNWKEKPSGKIPYSAELSGMIALEMAAKLELEHHHHHH” here?
A: Its protein production is “not failed”.

Q: Which protein production does the source give for “MTEPCYVMVDQRFDEFVDTARAPEQIVHGFAWTEGPVWLDGAPFFNDIANKRMMRWTKQACAEVALDNSEFANGNTLDGAGQVVSGEHAGRRVIRRPDPTDPSAVEVIAERSEGKRLNSPNEVVVRSDGSVWFTNPPYGINSDIEGYPAESEIGGCFVFCPDPDGTLHAVATEFDKPNELAFSPDECRLFVADSGAIRGAIFPGIDDDLPHHVRVFDVDGVTLSNGRVFAVVAPGAPDGFRVDHEGYVWTSALDGIHCLSPEGALIGKIWLPRQTSIICFGGPPGQTMFITSSDKVYRVESTRRDAAHALRDRERNAE” here?
A: The protein production was “failed”.

Q: Which protein production does the source give for “MTEPNNPHRPDEAGVSGWPSEAGRDPYGQPSNPYQMPAPYSSGLPVAENHRRPYVDFGLAIKLFFKNYAVFRGRASRSEYWWTVLFNFIIAVAIQALMPILQGVGLMSAITSNSTTEFSAMSTSGVIFTMLPLAWLLAIIIPCLALTVRRLHDVNHSGWWVMAPTLCGIVSAIMMILAFVSAAANDGKPSMALLTIGIVLFVAIFVVNIILLIFVISDSHPEAWKKYDKEPLPVTE” here?
A: Its protein production is “failed”.

Q: For “MTEPPPTPDRHPDAVESAAPGGYLEPVRAAGTVLWRDTGRGREIALVHRPRYNDWTLPKGKLDEGEHVLVAAVRETVEETGVTPRLGRRLATQRYWKSGWPKQVDWWAATPAPGTTAQFTPTAEVDAVEWLPAAEARARLTYPSDVRVLDDFLHGPAQTVPLVLLRHASAGNKNEWHDYDLLRPLDEAGRAHARAVADILAVFGPLRVVSSTAARCLETVVPYAAAHGVEIRTEHTFTVGVLRSGAQAYDPQAARQTMRALVEERQPTLVCTHGELVADLMAEAAAQTGAPARSRWALRKGAFWVVHRDAKDGSLVAVEHHGLPG”, which protein production is on record?
A: Its protein production is “failed”.

Q: Which protein production does the source give for “MTEPTHKKQFSLRTAVMLPFIAVLLVTLSIVFYTQNNSYEKLVGDVSEKVLASYTQNTHADLNIFLNAPNFAVKSMVNQIQRYQMYHPNDTKQLQQFLKDSLEGIYTGLEQMDVLSFGGEKKEYIGFRREPNASLSLMLQDKRTNDDLIIYRGSEMSDNIRTVIANYDPRSRPWYKPAATTFKPSWSKIYTNADEKKEITISTMHPVFYDEDFIGVFAADVKLDSFNKFLSQETKHTKGVIYLIDDQQRLIAHSSVGSVLSIGTQNSPVGSRLFAVESCDETIQQSATYIKNNQLINNKNNDAEVFSFYYKGERYFSQITPYIDGNNLNWYIVISISESDLLGHLQEEQRRGLFFGIVLAAIGLIVGVYLVTQVTKPIFTTANAARNIASGNWNNNVEAQGSIYETTLLMNAFNDMTNKLQSSFDAMRQQITFDSLTQVLSRQGLIEQCRIMLDKKEHYEQGLLVIGINNFRDINDSFGILEGDQLLKNISDRLQCSFAHDNIAIARVGGDEFALFFSKLDDVEQLKQYARDMEGCFMTPFRVASNNSLLSISTGLVYGDLSCDSMTLWLRNASIALGQAKKNNLNMSLYTPEMAEASLHKANMTAELSLAIKNKELVPFYQPIIDIKSGKTIGAEALIRWLSPQRGMVSPLDFIPLAEENGMIIPMGSQVLTQACLDTVERIDQGLWPADFHMHVNLSVCQLTQNNFLDELKAVLHNTSMAPENLTLEITESRLVNHDNSTINTMQKIRDLGVQIAIDDFGTGYSSLAYIHKLPFDVLKVDRSFIKDLTAENIDSSIAAAVCNMTQGFDITLVAEGIETQEQAKLLASLNYHHAQGFLYSRPIPLEDWPTE” here?
A: The protein production was “failed”.

Q: For “MTERPSLSPREARDRYLAHRQTDAADASIKSFRYRLKHFVEWAEERDITAMRELTGWKLDEYETFRRGSDVSPATLNGEMQTLKNWLEYLARIDVVDEDLPEKVHVPTIPDGEESNDEMLEPEAAKKLLRAMRSDPTHYGTVKHALLELLWFTGCRVGAARSLDLRDYHSGERFVTFHHREGTPLKNDSDGERAVGLPEAVCEVLDYYIEHHRESSHDDHGRKPLFTTTQGRASENTARVWTYLATQPCLHGPCPHGKERETCSYLHIHSASKCPSSLSPHRIRTGSITWQRDCGLPAEVVSERVNATLEVIEKHYDQATKRQRLEERRRPYINNLELDLEADS”, which protein production is on record?
A: Its protein production is “failed”.

Q: Which protein production does the source give for “MTESATASRSWHLQATIRRLVLTAFVAGQTGLASWFLLQVLPYHGGNVVEWLIVAVFAVLYLWIAFGFWIAVYGFLLRLLGGDRASLLKRHTPNELAATPLSKTAIVMPLYHEPVSWTLKGLKAIYLDLARSGRLDDFDFYILSDSQDPDVWLQEQQVWLKLVEELGAHGRLFYRRRRVNLNYKSGNVADFLRRWGSQYQYMVVLDADSLLAGDTIRTMVQVMNREPQVGILQTAPTIINARSAFARIQQFANRLYSPLFATGLAAIQMGDAAFWGHNAVIRVAPFMAHCGLPKLKGAGIWQGPIMSHDFVEAAFLGRAGYEVWLEPALGASYEESPPTLDDELARDQRWSKGNLQHAALMLFSPRLRLAHRFAFLNGIMAYASSPLWLLFLVLTTIAAVQLTIAPIDYFPDGRESPFPLWPEWRPTWAITLVVSTMALLFLPKFLAIVDVVAHRTLSGFGGFFRLLCSVLLEIVVSVLLAPIRMLAHSHSVVSALLNVRLSWAGQNRTEETGWREAAVRHLPGLIIGSAWSAFAWTLDPMFFLWSLPVSIPLALAAPTTVWLSRSSSGESLSRRGLLLTPEERTRMPLLDDARGFREEAESEVALTPVEQAVLIPAVNRLHRQLAGRGAKGLKKEVIEGELDACVSRGYRGIEKGRLSLLLEDPQALTALHRRAWSAPSDSFWGQRVRNLVLHAQGLQDL” here?
A: The protein production was “failed”.

Q: For “MTEVDPRFEAWLSLETGIDAPSLGANALERAVLERARAMLAESSPRRPAVADAAALDAYWLRLNTWPEERQALIEALVVPETWFFRDREAFAELARLAGERLVREPARVLRILSVACSTGEEPYSAAMALLDAGIGPARFAIDAIDISGRAIDQAEHALYGRNAFRGYPLTFRDRYFSEVADGWQLNERVRRRVRFTQGNLFDETMDGEARYDFIFCRNALTYFHRDAQDHAIRRLDAQLADGGVIFVGPAETGPMMRHAMTPARSPLAFAFVRTPPAAKVPARAAPSQQQAPRPAVTGSPTVKPAAPEAASLAVRGGGAALPEHSAAVPVSLSTPLSVPPLRKVLPDLDDARQLTDAGRFDEAEYIIQDIVSLSAPEADTFYLLGVIAHARGRYADAGDFYRKTLYLDPEHYEALTHLAAVLDASGDAVGARQLMLRAQRAMARRDPAHPDAPNRPRGAPGLRRS”, which protein production is on record?
A: The protein production was “failed”.

Q: Which protein production does the source give for “MTEVYDLEITTNATDFPMEKKYPAGMSLNDLKKKLELVVGTTVDSMRIQLFDGDDQLKGELTDGAKSLKDLGVRDGYRIHAVDVTGGNEDFKDESMVEKYEMSDDTYGKRTDSVRAWKKKMQEEQGSAAPMENESDKLNEEAAKNIMVGNRCEVTVGAQMARRGEVAYVGATKFKEGVWVGVKYDEPVGKNDGSVAGVRYFDCDPKYGGFVRPVDVKVGDFPELSIDEI” here?
A: The protein production was “not failed”.

Q: With “MTFEIAFVLLSLLGMVIALILDKMRPGMILFSVVVLFLCAGILTPKEMLEGFSNKGMITVALLFLVSEGIRQSGALGQVVKKLLPQKRTTVFRAQLRLLPAVAFISAFLNNTPVVVIFAPIIKRWARTVHLPATKFLIPLSYVTILGGICTLIGTSTNLVVHGMILESGHEGFTMFELGKVGIFIAIAGIIYLFAFSKKLLPDARPDTAVPDEEVEEGDKLHRVEAVLGARFPGINKTLGEFNFKRHYGAEVKEIKKRNGQRFINNLEEVILREGDTLVVMADDTFIPTWGESSVFVLLANGNDNEPIPGKGKRWFALILLILMIAGATIGELPVVKEMFPDMKLDMFFFVSVTTIIMAWTKIFPARKYTKYISWDILITIACAFAISKAMVNSGVADKVAGFIIGMSHDYGPHVLLAVLFIITNLFTELITNNAAAALAFPLALSLSVQLGVDPTPFFVVICMAASASFSTPIGYQTNLIVQGIGNYKFMDFVRIGLPLNLITFLISIFLIPLIWPF” as the sequence, how does the protein production read?
A: The protein production was “failed”.

Q: Which protein production does the source give for “MTFEIVFVLLSLLGMMAALIADKMRPGMVLFSVVVLFLCVGILTPKEMLEGFSNKGMITVALLFLVSEGIRQSGTLGQVIKKLLPQGKTTVFKAQLRILPSVAFISAFLNNTPVVVIFAPIIKHWAKSVKLPATKFLIPLSYVTILGGICTLIGTSTNLVVHGMILEAGYEGFTMFELGKVGIFIAIAGIIYLFIFSKRLLPDARPDTAVPDEEVEEGEKLHRVEAVLGARFPGINKKLSDFNFQRHYGAEVKEIKTRNGQRYVDHLEDVVLREGDTLVVMADDTFIPTWGESSVFVLLTNGNDPDTSGKKKRWLALILLVLMIVGATVGELPATKEMFPDIKLDMFFFVCITTIIMAWTNIFPARKYTKYISWDILITIACAFAISKAMVNSGVADCVAGFIIGLSDDYGPHVLLAILFVITNLFTELITNNAAAALAFPLALSISAQLGVSPTPFFVVICMAASASFSTPIGYQTNLIVQGIGNYKFTDFVRIGLPLNIITFLISVILIPLIWNF” here?
A: The protein production was “not failed”.

Q: Which protein production does the source give for “MTFFTNYTNLALIAILLVSGGLLAWPALRRGRGGLSAAEATQLINRRNAVVIDLRAATDFAAGHLPSARQVAAGEIGAKIAQVAKNKSTPVLLVCQNGQQSQKAAREVQAAGYAEVHVLEGGVAAWQQAGMPVVKQGVAK” here?
A: The protein production was “failed”.

Q: For “MTFKQVADDWLKQYANDVKVSSVRAREKAIQHAIERFNTKPIQTIKKHDYQRFVDDISAQYSKNYVDSIVASTNMIFKYAYDTRLIKAMPSEGIKRPKKKVSVELEHHHHHH”, which protein production is on record?
A: The protein production was “not failed”.
